We go through eight molecules from paper PMC8298264, “Function of cofactor Akirin2 in the regulation of gene expression in model human neutrophil-like HL60 cells” (Bioscience Reports, 2021).

B1: Serglycin (protein, UniProt P10124 28-158, looked up)
Serglycin: YPTRRARYQWVRCNPDSNSANCLEEKGPMFELLPGESNKIPRLRTDLFPKTRIQDLNRIFPLSEDYSGSGFGSGSGSGSGSGSGFLTEMEQDYQLVDESDAFHDNLRSLDRNLPSDSQDLGQHGLEEDFML
B2: Azurocidin (protein, UniProt P20160 27-248, looked up)
Azurocidin: IVGGRKARPRQFPFLASIQNQGRHFCGGALIHARFVMTAASCFQSQNPGVSTVVLGAYDLRRRERQSRQTFSISSMSENGYDPQQNLNDLMLLQLDREANLTSSVTILPLPLQNATVEAGTRCQVAGWGSQRSGGRLSRFPRFVNVTVTPEDQCRPNNVCTGVLTRRGGICNGDGGTPLVCEGLAHGVASFSLGPCGRGPDFFTRVALFRDWIDGVLNNPGP
B3: Spartin (protein, UniProt Q8N0X7 1-666, looked up)
Spartin: MEQEPQNGEPAEIKIIREAYKKAFLFVNKGLNTDELGQKEEAKNYYKQGIGHLLRGISISSKESEHTGPGWESARQMQQKMKETLQNVRTRLEILEKGLATSLQNDLQEVPKLYPEFPPKDMCEKLPEPQSFSSAPQHAEVNGNTSTPSAGAVAAPASLSLPSQSCPAEAPPAYTPQAAEGHYTVSYGTDSGEFSSVGEEFYRNHSQPPPLETLGLDADELILIPNGVQIFFVNPAGEVSAPSYPGYLRIVRFLDNSLDTVLNRPPGFLQVCDWLYPLVPDRSPVLKCTAGAYMFPDTMLQAAGCFVGVVLSSELPEDDRELFEDLLRQMSDLRLQANWNRAEEENEFQIPGRTRPSSDQLKEASGTDVKQLDQGNKDVRHKGKRGKRAKDTSSEEVNLSHIVPCEPVPEEKPKELPEWSEKVAHNILSGASWVSWGLVKGAEITGKAIQKGASKLRERIQPEEKPVEVSPAVTKGLYIAKQATGGAAKVSQFLVDGVCTVANCVGKELAPHVKKHGSKLVPESLKKDKDGKSPLDGAMVVAASSVQGFSTVWQGLECAAKCIVNNVSAETVQTVRYKYGYNAGEATHHAVDSAVNVGVTAYNINNIGIKAMVKKTATQTGHTLLEDYQIVDNSQRENQEGAANVNVRGEKDEQTKEVKEAKKKDK
B4: Cystatin-F (protein, UniProt O76096 20-145, looked up)
Cystatin-F: GPSPDTCSQDLNSRVKPGFPKTIKTNDPGVLQAARYSVEKFNNCTNDMFLFKESRITRALVQIVKGLKYMLEVEIGRTTCKKNQHLRLDDCDFQTNHTLKQTLSCYSEVWVVPWLQHFEVPVLRCH
B5: Non-secretory ribonuclease (protein, UniProt P10153 28-161, looked up)
Non-secretory ribonuclease: KPPQFTWAQWFETQHINMTSQQCTNAMQVINNYQRRCKNQNTFLLTTFANVVNVCGNPNMTCPSNKTRKNCHHSGSQVPLIHCNLTTPSPQNISNCRYAQTPANMFYIVACDNRDQRRDPPQYPVVPVHLDRII
B6: sp¦P11766¦ADHX_HUMAN (protein, UniProt P11766 2-374, looked up)
Alcohol dehydrogenase class-3: ANEVIKCKAAVAWEAGKPLSIEEIEVAPPKAHEVRIKIIATAVCHTDAYTLSGADPEGCFPVILGHEGAGIVESVGEGVTKLKAGDTVIPLYIPQCGECKFCLNPKTNLCQKIRVTQGKGLMPDGTSRFTCKGKTILHYMGTSTFSEYTVVADISVAKIDPLAPLDKVCLLGCGISTGYGAAVNTAKLEPGSVCAVFGLGGVGLAVIMGCKVAGASRIIGVDINKDKFARAKEFGATECINPQDFSKPIQEVLIEMTDGGVDYSFECIGNVKVMRAALEACHKGWGVSVVVGVAASGEEIATRPFQLVTGRTWKGTAFGGWKSVESVPKLVSEYMSKKIKVDEFVTHNLSFDEINKAFELMHSGKSIRTVVKI
B7: sp¦Q92900¦RENT1_HUMAN (protein, UniProt Q92900 1-1129, looked up)
Regulator of nonsense …: MSVEAYGPSSQTLTFLDTEEAELLGADTQGSEFEFTDFTLPSQTQTPPGGPGGPGGGGAGGPGGAGAGAAAGQLDAQVGPEGILQNGAVDDSVAKTSQLLAELNFEEDEEDTYYTKDLPIHACSYCGIHDPACVVYCNTSKKWFCNGRGNTSGSHIVNHLVRAKCKEVTLHKDGPLGETVLECYNCGCRNVFLLGFIPAKADSVVVLLCRQPCASQSSLKDINWDSSQWQPLIQDRCFLSWLVKIPSEQEQLRARQITAQQINKLEELWKENPSATLEDLEKPGVDEEPQHVLLRYEDAYQYQNIFGPLVKLEADYDKKLKESQTQDNITVRWDLGLNKKRIAYFTLPKTDSGNEDLVIIWLRDMRLMQGDEICLRYKGDLAPLWKGIGHVIKVPDNYGDEIAIELRSSVGAPVEVTHNFQVDFVWKSTSFDRMQSALKTFAVDETSVSGYIYHKLLGHEVEDVIIKCQLPKRFTAQGLPDLNHSQVYAVKTVLQRPLSLIQGPPGTGKTVTSATIVYHLARQGNGPVLVCAPSNIAVDQLTEKIHQTGLKVVRLCAKSREAIDSPVSFLALHNQIRNMDSMPELQKLQQLKDETGELSSADEKRYRALKRTAERELLMNADVICCTCVGAGDPRLAKMQFRSILIDESTQATEPECMVPVVLGAKQLILVGDHCQLGPVVMCKKAAKAGLSQSLFERLVVLGIRPIRLQVQYRMHPALSAFPSNIFYEGSLQNGVTAADRVKKGFDFQWPQPDKPMFFYVTQGQEEIASSGTSYLNRTEAANVEKITTKLLKAGAKPDQIGIITPYEGQRSYLVQYMQFSGSLHTKLYQEVEIASVDAFQGREKDFIILSCVRANEHQGIGFLNDPRRLNVALTRARYGVIIVGNPKALSKQPLWNHLLNYYKEQKVLVEGPLNNLRESLMQFSKPRKLVNTINPGARFMTTAMYDAREAIIPGSVYDRSSQGRPSSMYFQTHDQIGMISAGPSHVAAMNIPIPFNLVMPPMPPPGYFGQANGPAAGRGTPKGKTGRGGRQKNRFGLPGPSQTNLPNSQASQDVASQPFSQGALTQGYISMSQPSQMSQPGLSQPELSQDSYLGDEFKSQIDVALSQDSTYQGERAYQHGGVTGLSQY
B8: sp¦Q13177¦PAK2_HUMAN (protein, UniProt Q13177 2-524, looked up)
Serine/threonine-protein …: SDNGELEDKPPAPPVRMSSTIFSTGGKDPLSANHSLKPLPSVPEEKKPRHKIISIFSGTEKGSKKKEKERPEISPPSDFEHTIHVGFDAVTGEFTGMPEQWARLLQTSNITKLEQKKNPQAVLDVLKFYDSNTVKQKYLSFTPPEKDGFPSGTPALNAKGTEAPAVVTEEEDDDEETAPPVIAPRPDHTKSIYTRSVIDPVPAPVGDSHVDGAAKSLDKQKKKTKMTDEEIMEKLRTIVSIGDPKKKYTRYEKIGQGASGTVFTATDVALGQEVAIKQINLQKQPKKELIINEILVMKELKNPNIVNFLDSYLVGDELFVVMEYLAGGSLTDVVTETCMDEAQIAAVCRECLQALEFLHANQVIHRDIKSDNVLLGMEGSVKLTDFGFCAQITPEQSKRSTMVGTPYWMAPEVVTRKAYGPKVDIWSLGIMAIEMVEGEPPYLNENPLRALYLIATNGTPELQNPEKLSPIFRDFLNRCLEMDVEKRGSAKELLQHPFLKLAKPLSSLTPLIMAAKEAMKSNR

The subject of one assay is human HL60 cells. The assay can be described thus: SWATH-MS proteomics, differential protein representation, akirin2 KO vs WT HL60 cells. Conditions: SWATH-MS, akirin2 KO vs WT HL60 cells; over-represented in KO. In kind it is cell-based. An outline of the steps:
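Differential representation compares akirin2 KO with WT HL60 across three biological replicates, 5 µg digest each, acquired by data-independent SWATH on a 120-min gradient. Library built from combined IDA runs searched with Paragon; proteins accepted at 1% FDR, with total-area-sum normalization.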
As for B1, the “Fold Change” value was determined as 2.81 and the “Log (Fold Change)” value stood at 0.4488.

Consider B2, for which the “Fold Change” value turned out to be 2.563 and the “Log (Fold Change)” value is listed as 0.4087.

Consider B3, for which the “Fold Change” value is listed as 2.789 and the “Log (Fold Change)” value was 0.4455.

B4: the “Fold Change” value stood at 2.6697 and the “Log (Fold Change)” value was 0.4265.

Regarding B5, the “Fold Change” value worked out at 2.742 and the “Log (Fold Change)” value is given as 0.4381.

Staying with this assay, now noted: akirin2 KO vs WT HL60 cells; sheet "Over-represented in KO".
For B6, the “Fold Change” value is 1.096 and the “Log (Fold Change)” value is reported as 0.03978.

On to B7, for which the “Fold Change” value turned out to be 1.105 and the “Log (Fold Change)” value is on record as 0.04317.

As for B8, the “Fold Change” value was determined as 1.114 and the “Log (Fold Change)” value came out at 0.04699.
